Literature values as cited in US6046224A, “12 (S)--hete receptor blockers” (City of Hope, priority 1998, dated 2000).

Tests used:
[1] = system: CHO-AT1a cells; conditions: CHO-AT1a cells; 0.1 µM; cited from earlier work
[2] = system: CHO-AT1a cells; conditions: cited from earlier work

AII: growth factor and potent vasoconstrictor AII (DRVYIHPF; Angiotensin-2; UniProt P01019 25-32, looked up)
increase in cell proliferation [1]: 2 fold
increase in 12(S)-HETE formation [2]: 2 fold
